Experimental data from article PMC7226950.
pKd: −log10 of the molar value.

Key:
[1] = biological target: NY-ESO peptide on HLA-A*02:01 (human); assay: data from [41,42]; reprinted in Table 1
[2] = biological target: NY-ESO, mutated peptide ESO4D (4D, 9V) peptide on HLA-A*02:01 (human); assay: data from [41,42]; reprinted in Table 1
[3] = biological target: NY-ESO peptide on HLA-A*02:01 (human); assay: data from [41,42]; experimental binding affinity data reprinted in Table 1

koff [1]: 0.82 s⁻¹
kon [1]: 57000 M⁻¹ s⁻¹
t1/2 [1]: 0.84 s
pKd [2]: 3.60
koff [2]: 2.59 s⁻¹
kon [2]: 10000 M⁻¹ s⁻¹
t1/2 [2]: 0.27 s
pKd [3]: 4.85
Substance: 1G4
